# Source: the MegaScale stability set (Tsuboyama et al. 2023)
# B1: r16_88_TrROS_Hall (parent)
# chain: EVIELKIKFKTPEQREKLKEIAKKLNAEVVEEKDGEVIIRFKTPEQAERALKEAEKLGAEVEL
# Variants of: B1
# Assay: folding stability dG (cDNA display proteolysis); higher = more stable
# Conditions: PBS, room temperature
row,Variant,folding stability dG [kcal/mol]
1,EVIELKIKFKTPEQREKLKEIAKKLNAEVVEEKDGEVIIRFKTPEQAERALKEAEKLGAEVEV [L63V],4.25
2,EVIELKIKFKTPEQREKLKEIAKKLNAEVVEEKDGEVIIRFKTPEQAERALKEAEKLGAEVEY [L63Y],4.35
3,EVIELKIKFKTPEQREKLKEIAKKLNAEVVEEKDGEVIIRFKTPEQAERALKEAEKLGAEVEW [L63W],4.73
